Literature values as cited in article PMC6596353.

Target: ST2 (Homo sapiens) (UniProt Q01638)
Sequence of UniProt Q01638 (Q01638 19-556): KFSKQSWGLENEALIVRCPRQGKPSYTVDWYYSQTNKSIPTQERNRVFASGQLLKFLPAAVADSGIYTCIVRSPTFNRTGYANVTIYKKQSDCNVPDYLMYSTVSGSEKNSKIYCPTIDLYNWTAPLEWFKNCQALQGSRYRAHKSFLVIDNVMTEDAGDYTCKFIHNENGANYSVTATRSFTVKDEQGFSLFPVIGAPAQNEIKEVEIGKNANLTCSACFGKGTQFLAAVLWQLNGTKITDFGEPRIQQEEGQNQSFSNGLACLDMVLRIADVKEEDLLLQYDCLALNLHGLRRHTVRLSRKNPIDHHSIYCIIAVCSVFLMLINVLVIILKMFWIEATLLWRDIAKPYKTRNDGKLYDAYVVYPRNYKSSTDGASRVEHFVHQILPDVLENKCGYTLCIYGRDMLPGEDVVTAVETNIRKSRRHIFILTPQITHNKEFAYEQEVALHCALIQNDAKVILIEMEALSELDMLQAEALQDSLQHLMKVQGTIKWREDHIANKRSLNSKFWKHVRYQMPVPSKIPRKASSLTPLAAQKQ

Kd: 0.45 nM
Substance: IL-33 (from UniProt O95760)
